“And” between values parts separate entries of the source, which are not always exact repeats. Equal values may be shown once.
Details: whole UniProt chain shown
[1] = Thermotoga maritima (strain ATCC 43589 / DSM 3109 / JCM 10099 / NBRC 100826 / MSB8), pH 6, 29 °C, Thermal, CD, sodium phosphate 50 mM, reversible: yes
[2] = Thermotoga maritima (strain ATCC 43589 / DSM 3109 / JCM 10099 / NBRC 100826 / MSB8), pH 7.4, 25 °C, GdnHCl, CD, sodium phosphate, transition: 2, reversible: yes
[3] = Thermus thermophilus (strain ATCC 27634 / DSM 579 / HB8), pH 5.5, 25 °C, Urea, CD, NaOAc 20 mM, KCl 50 mM, reversible: yes
[4] = Thermus thermophilus (strain ATCC 27634 / DSM 579 / HB8), pH 5.5, Thermal, CD, Sodium acetate 5 mM, KCl 50 mM, reversible: yes
[5] = Thermus thermophilus, pH 7, Thermal, Fluorescence, potassium phosphate 50 mM, DTT 1 mM, reversible: yes

B1: Malate dehydrogenase, cytoplasmic wild type, P11708 (protein)
chain: MSEPIRVLVTGAAGQIAYSLLYSIGNGSVFGKDQPIILVLLDITPMMGVLDGVLMELQDCALPLLKDVIATDKEEIAFKDLDVAILVGSMPRRDGMERKDLLKANVKIFKCQGAALDKYAKKSVKVIVVGNPANTNCLTASKSAPSIPKENFSCLTRLDHNRAKAQIALKLGVTSDDVKNVIIWGNHSSTQYPDVNHAKVKLQAKEVGVYEAVKDDSWLKGEFITTVQQRGAAVIKARKLSSAMSAAKAICDHVRDIWFGTPEGEFVSMGIISDGNSYGVPDDLLYSFPVTIKDKTWKIVEGLPINDFSREKMDLTAKELAEEKETAFEFLSSA
Sus scrofa, pH 7.5, 25 °C, GdnHCl, Fluorescence, TEA 50 mM, MgCl2 20 mM, transition: 3
  unfolding free energy: 5.9 kcal/mol and 6.4 kcal/mol

B2: Chemotaxis protein CheY wild type, Q56312 (protein)
chain: MGKRVLIVDDAAFMRMMLKDIITKAGYEVAGEATNGREAVEKYKELKPDIVTMDITMPEMNGIDAIKEIMKIDPNAKIIVCSAMGQQAMVIEAIKAGAKDFIVKPFQPSRVVEALNKVSK
[1]
  heat capacity change of unfolding: 1.17 kcal/mol/K
  unfolding free energy: 9.54 kcal/mol
Thermotoga maritima (strain ATCC 43589 / DSM 3109 / JCM 10099 / NBRC 100826 / MSB8), pH 6, Thermal, CD, sodium phosphate 50 mM, reversible: yes
  Tm: 101 °C

B3: wild type, Q9WZ62 (protein)
chain: MKKLLAVSILLVSIVIFSGAIDEIKSRGYLLVGLSADFPPFEFVDENGNIVGFDVDLAKEIARRLGVELKIVDMTFDGLIPSLLTKKIDVIISGMTITEERKKVVAFSDPYFDAGQVIVVRKDSDFRPKTYEDLVGKTVAVQIGTTGDIEVSKYDGIKVVRFDKFTDAFLELKRGRADAVVLDSATARAFVAKNPDLVISSGVLSSEQYGIAVRKEDTDLLEFINSVLRELKKSPYDVLIEKWFSE
[2]
  denaturant m value: 2.63 kcal/mol/M and 2.86 kcal/mol/M
  denaturant midpoint (higher = more stable): 5 M and 4.5 M
  unfolding free energy: 12.9 kcal/mol and 13.1 kcal/mol

B4: Dihydrofolate reductase wild type, Q60034 (protein)
chain: MAKVIFVLAMDVSGKIASSVESWSSFEDRKNFRKITTEIGNVVMGRITFEEIGRPLPERLNVVLTRRPKTSNNPSLVFFNGSPADVVKFLEGKGYERVAVIGGKTVFTEFLREKLVDELFVTVEPYVFGKGIPFFDEFEGYFPLKLLEMRRLNERGTLFLKYSVEKSHR
Thermotoga maritima (strain ATCC 43589 / DSM 3109 / JCM 10099 / NBRC 100826 / MSB8), pH 7.8, 5 °C, GdnHCl, CD, Potassium phosphate 10 mM, reversible: yes
  denaturant m value: 13.2 kcal/mol/M
Thermotoga maritima (strain ATCC 43589 / DSM 3109 / JCM 10099 / NBRC 100826 / MSB8), pH 7.8, 15 °C, GdnHCl, CD, Potassium phosphate 10 mM, reversible: yes
  denaturant m value: 9.4 kcal/mol/M
Thermotoga maritima (strain ATCC 43589 / DSM 3109 / JCM 10099 / NBRC 100826 / MSB8), pH 7.8, 15 °C, Urea, CD, Potassium phosphate 10 mM, reversible: yes
  denaturant m value: 4.71 kcal/mol/M
Thermotoga maritima (strain ATCC 43589 / DSM 3109 / JCM 10099 / NBRC 100826 / MSB8), pH 7.8, 25 °C, GdnHCl, CD, Potassium phosphate 10 mM, reversible: yes
  denaturant m value: 7.15 kcal/mol/M
Thermotoga maritima (strain ATCC 43589 / DSM 3109 / JCM 10099 / NBRC 100826 / MSB8), pH 7.8, 37 °C, GdnHCl, CD, Potassium phosphate 10 mM, reversible: yes
  denaturant m value: 5.98 kcal/mol/M
Thermotoga maritima (strain ATCC 43589 / DSM 3109 / JCM 10099 / NBRC 100826 / MSB8), pH 7.8, 55 °C, GdnHCl, CD, Potassium phosphate 10 mM, reversible: yes
  denaturant m value: 6.24 kcal/mol/M
Thermotoga maritima (strain ATCC 43589 / DSM 3109 / JCM 10099 / NBRC 100826 / MSB8), pH 7.8, 70 °C, GdnHCl, CD, Potassium phosphate 10 mM, reversible: yes
  denaturant m value: 7.56 kcal/mol/M

B5: Ribonuclease H wild type, P29253 (protein)
chain: MNPSPRKRVALFTDGACLGNPGPGGWAALLRFHAHEKLLSGGEACTTNNRMELKAAIEGLKALKEPCEVDLYTDSHYLKKAFTEGWLEGWRKRGWRTAEGKPVKNRDLWEALLLAMAPHRVRFHFVKGHTGHPENERVDREARRQAQSQAKTPCPPRAPTLFHEEA
[3]
  denaturant m value: 2 kcal/mol/M
  unfolding free energy: 12.8 kcal/mol
[4]
  Tm: 86 °C
  heat capacity change of unfolding: 1.8 kcal/mol/K
  unfolding enthalpy (van 't Hoff): 131 kcal/mol

B6: Inorganic pyrophosphatase wild type, P38576 (protein)
chain: MANLKSLPVGDKAPEVVHMVIEVPRGSGNKYEYDPDLGAIKLDRVLPGAQFYPGDYGFIPSTLAEDGDPLDGLVLSTYPLLPGVVVEVRVVGLLLMEDEKGGDAKVIGVVAEDQRLDHIQDIGDVPEGVKQEIQHFFETYKALEAKKGKWVKVTGWRDRKAALEEVRACIARYKG
Thermus thermophilus (strain ATCC 27634 / DSM 579 / HB8), pH 7, Thermal, CD, HEPES 20 mM, MgCl2 5 mM
  Tm: 99 °C
Thermus thermophilus (strain ATCC 27634 / DSM 579 / HB8), pH 7, Thermal, CD, HEPES 20 mM
  Tm: 86 °C

B7: Elongation factor Ts wild type, P43895 (protein)
chain: MSQMELIKKLREATGAGMMDVKRALEDAGWDEEKAVQLLRERGAMKAAKKADREAREGIIGHYIHHNQRVGVLVELNCETDFVARNELFQNLAKDLAMHIAMMNPRYVSAEEIPAEELEKERQIYIQAALNEGKPQQIAEKIAEGRLKKYLEEVVLLEQPFVKDDKVKVKELIQQAIAKIGENIVVRRFCRFELGA
Thermus thermophilus (strain ATCC 27634 / DSM 579 / HB8), pH 7, Thermal, CD, Phosphate 10 mM, reversible: No
  Tm: 115 °C

B8: 3-isopropylmalate dehydrogenase wild type, P61495 (protein)
chain: MKVAVLPGDGIGPEVTEAALKVLRALDEAEGLGLAYEVFPFGGAAIDAFGEPFPEPTRKGVEEAEAVLLGSVGGPKWDGLPRKISPETGLLSLRKSQDLFANLRPAKVFPGLERLSPLKEEIARGVDVLIVRELTGGIYFGEPRGMSEAEAWNTERYSKPEVERVARVAFEAARKRRKHVVSVDKANVLEVGEFWRKTVEEVGRGYPDVALEHQYVDAAAMHLVRSPARFDVVVTGNIFGDILSDLASVLPGSLGLLPSASLGRGTPVFEPVHGSAPDIAGKGIANPTAAILSAAMMLEHAFGLVELARKVEDAVAKALLETPPPDLGGSAGTEAFTATVLRHLA
Thermus thermophilus, pH 7, 27 °C, Urea, Fluorescence, Potassium phosphate 50 mM, transition: 3, reversible: yes
  denaturant m value: 1.2 kcal/mol/M and 1.41 kcal/mol/M
Thermus thermophilus, pH 7, Thermal, CD, phosphate 20 mM
  Tm: 87 °C
Thermus thermophilus, pH 7, Thermal, CD, sodium phosphate, ammonium sulfate 1.0-1.5 M
  Tm: 87 °C
[5]
  Tm: 30.9 °C
  heat capacity change of unfolding: 1.73 kcal/mol/K
  unfolding enthalpy (van 't Hoff): 15.8 kcal/mol
Thermus thermophilus, pH 7.6, Thermal, Activity, potassium phosphate 20 mM, reversible: No
  Tm: 84.7 °C
Thermus thermophilus, pH 7.6, Thermal, CD, phosphate 20 mM, reversible: No
  Tm: 87.4 °C
Thermus thermophilus, pH 10.4, Thermal, CD, NaHCO3 20 mM
  Tm: 87 °C
